Results on 2 molecules are retold here after patent publication US20220273711A1 (University of Washington, published 2022).

For experiment [1], the target named is T1, Her2-eGFP (hsHER2_ecd_tm-eGFP) (human (hs)).
T1 construct: Expressed on K562 cells by lentiviral transduction; also called Her2-eGFP on K562 cells
Kind of experiment: flow cytometry; Bim-DARPin pre-complexed with Bcl2-AF594, 3-fold dilutions from 300 nM to 0.4 nM, mixed K562 cells expressing Her2-eGFP, EGFR-iRFP, both or neither. Here is the method: (§1) FIG. 16. DARPin binder affinity measured by flow cytometry. Anti-Her2 or anti-EGFR DARPins with N-terminal fusions to Bim were pre-complexed with Bcl2-AF594 and serially diluted 3-fold from 300 nM down to 0.4 nM. This dilution series was used to label a mixed population of K562 cells expressing Her2-eGFP, EGFR-iRFP, both, or neither for one hour at room temperature in a 50 μl incubation volume. The cells were then washed in PBS supplemented with 0.1% bovine serum albumin and analyzed on an LSRII flow cytometer.

Experiment [2] addresses T2, EGFR-iRFP (hsEGFR_ecd_tm-iRFP) (human (hs)).
T2 construct: Expressed on K562 cells by lentiviral transduction; also called EGFR-iRFP on K562 cells
The description is as above. Here is the method: as §1

T2 sequence (chain, as listed by the source limits assumed): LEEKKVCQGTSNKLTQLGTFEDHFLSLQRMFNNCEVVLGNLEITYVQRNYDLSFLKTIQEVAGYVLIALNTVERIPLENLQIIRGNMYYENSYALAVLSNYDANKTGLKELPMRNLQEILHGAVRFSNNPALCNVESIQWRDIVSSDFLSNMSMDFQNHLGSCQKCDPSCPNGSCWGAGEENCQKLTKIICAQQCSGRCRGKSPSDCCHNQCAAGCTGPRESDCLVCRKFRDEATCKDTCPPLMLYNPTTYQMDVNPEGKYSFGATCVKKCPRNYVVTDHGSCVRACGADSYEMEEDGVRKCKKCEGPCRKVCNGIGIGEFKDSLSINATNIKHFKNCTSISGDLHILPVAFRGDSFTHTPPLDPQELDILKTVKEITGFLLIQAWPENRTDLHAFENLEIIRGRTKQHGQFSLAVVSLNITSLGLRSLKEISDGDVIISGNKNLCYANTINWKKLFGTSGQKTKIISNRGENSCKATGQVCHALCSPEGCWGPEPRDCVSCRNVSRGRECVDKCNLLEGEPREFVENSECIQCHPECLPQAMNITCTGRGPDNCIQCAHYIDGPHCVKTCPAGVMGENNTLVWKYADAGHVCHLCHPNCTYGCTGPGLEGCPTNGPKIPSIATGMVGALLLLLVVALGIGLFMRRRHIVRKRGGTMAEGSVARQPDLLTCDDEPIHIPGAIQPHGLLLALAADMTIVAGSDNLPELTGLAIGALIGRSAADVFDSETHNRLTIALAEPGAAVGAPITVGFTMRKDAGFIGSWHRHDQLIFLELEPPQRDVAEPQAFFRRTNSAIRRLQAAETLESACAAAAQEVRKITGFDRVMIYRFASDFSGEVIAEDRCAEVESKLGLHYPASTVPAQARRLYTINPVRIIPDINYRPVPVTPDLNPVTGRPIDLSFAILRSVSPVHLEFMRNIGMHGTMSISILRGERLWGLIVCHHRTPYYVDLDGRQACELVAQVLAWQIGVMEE

B1: Bim_Her2 (Her2 DARPin tagged with N-terminal Bim peptide) (designed binder)
chain: MGSHHHHHHGSGSENLYFQGSTDEIWIAQELRRIGDEFNAYYASGSGDLGKKLLEAARAGQDDEVRILMANGADVNAKDEYGLTPLYLATAHGHLEIVEVLLKNGADVNAVDAIGFTPLHLAAFIGHLEIAEVLLKHGADVNAQDKFGKTAFDISIGNGNEDLAEILQKLN
notes: also called Anti-Her2 DARPin with N-terminal fusion to Bim; Bim-DARPin
For B1, in experiment [1], the Kd was around 10 nM.

B2: Bim_EGFR (EGFR DARPin tagged with N-terminal Bim peptide) (designed binder)
chain: MGSHHHHHHGSGSENLYFQGSTDEIWIAQELRRIGDEFNAYYASGSGDLGKKLLEAARAGQDDEVRILMANGADVNADDTWGWTPLHLAAYQGHLEIVEVLLKNGADVNAYDYIGWTPLHLAADGHLEIVEVLLKNGADVNASDYIGDTPLHLAAHNGHLEIVEVLLKHGADVNAQDKFGKTAFDISIDNGNEDLAEILQKLN
notes: also called anti-EGFR DARPin with N-terminal fusion to Bim; Bim-DARPin
B2 returned a dissociation constant Kd in experiment [2] of around 10 nM.

By Kd is commonly meant the free concentration of one partner at which half of the binding sites on the other are occupied at equilibrium, for simple one-to-one binding. Read a low Kd as tighter binding.
